Results as given in paper PMC12207370, “Macrocyclic Peptide Probes for Immunomodulatory Protein CD59: Potent Modulators of Bacterial Toxin Activity and Antibody‐Dependent Cytotoxicity” (Angewandte Chemie (International Ed. in English), 2025).

Target: T1, biotinylated CD59 (Homo sapiens, UniProt P13987)
T1 construct: Recombinant soluble human CD59 with an additional C-terminal cysteine residue
T1 sequence (P13987 26-102 limits assumed): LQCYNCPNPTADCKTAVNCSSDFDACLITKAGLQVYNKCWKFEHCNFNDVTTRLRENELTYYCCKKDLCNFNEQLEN
Test: mRNA-display cyclic peptide screen against CD59-biotin, NGS abundance after 6th selection round
Conditions: for Counts (raw counts for peptide sequence), Seq I: NGS sample Seq I; for Counts (raw counts for peptide sequence), Seq I / Counts (raw counts for peptide sequence), Seq II / Counts Seq I / Counts Seq II: sheet R6 (6th selection round); for Counts (raw counts for peptide sequence), Seq II: NGS sample Seq II; for Percentage of the pool, averaged across the two sequencing samples: average of Seq I and Seq II; for Percentage of the pool, averaged across the two sequencing samples / Percentage of the pool, Seq I / Percentage of the pool, Seq II / Percentage Seq I / Percentage Seq II / Percentage Average: sheet R6; for Percentage of the pool, Seq I: counts normalised by total counts of NGS sample Seq I; for Percentage of the pool, Seq II: counts normalised by total counts of NGS sample Seq II; for Percentage Seq I: counts normalised by total counts of sample Seq I; for Percentage Seq I / Percentage Seq II: percentage of the pool; for Percentage Seq II: counts normalised by total counts of sample Seq II; for Percentage Average: percentage of the pool averaged across the two sequencing samples; for Counts Seq I / Counts Seq II: raw NGS counts of peptide sequence; for Counts Seq I: sequencing sample Seq I; for Counts Seq II: sequencing sample Seq II
From the text: To discover novel non‐protein CD59 ligands, we screened a library of 10^12 cyclic peptides against CD59 using mRNA‐display (Figure 2a).^[ [23], [24], [25], [26], [27], [28], [29] ^] Briefly, an mRNA library was designed in which the start codon was reprogrammed from Met to N‐chloroacetyl‐D‐Tyr (ClAc‐D‐Tyr), followed by 10–12 randomly encoded natural amino acids, a Cys residue, a (GlySer)3 linker, and a stop codon. […] The total library diversity was 1.51 × 10^13 molecules, comprising 5.02 × 10^12 molecules of each macrocycle size, covering a subset of the maximum theoretical diversity of this library design. Following in vitro translation, ClAc‐D‐Tyr spontaneously reacts with either the C‐terminal Cys or a Cys in the random region, yielding macrocyclic thioether peptides. Hits from the library were identified through iterative enrichment and amplification against biotinylated CD59, then immobilized on streptavidin beads. Fifteen hit sequences (CP‐01 to CP‐15), enriched with abundance >1% relative to the total pool of recovered binders after the 6th round of selection, were synthesized by solid phase peptide synthesis (SPPS), without the (Gly‐Ser)3 linker.
Figure 2 Discovery of macrocyclic peptide ligands with nanomolar CD59 affinity using mRNA display. a) The selection process. PCR = polymerase chain reaction, SPPS = solid phase peptide synthesis. b) Table showing details of the peptides with nanomolar affinity for CD59 as well as the binding affinity of the lead inhibitor of CD59, rILYd4. K D values are presented as the average of three technical replicates ± SEM. Structures of all peptides and SPR sensograms are presented in Figures S1 and S2. *indicates the presented sequences are the variable regions of these cyclic peptides; each is flanked by an N‐terminal Ac‐D‐Tyr cyclized to a C‐terminal Cys. R6 abundance (%) is defined as (the given number of NGS reads for a given sequence/the total number of reads of unique sequences observed in NGS)*100 following the 6th selection round. c) Representative sensogram of the interaction between CP‐06 with immobilized CD59 by SPR analysis. Inset showing the equilibrium binding curve of CP‐06 to CD‐59. Below in the box are the association and dissociation rate constants of CP‐06. Concentrations are plotted in descending order from 800‐3.1 nM in line with their position on the legend. […] (nM)'; the box with Kon/Koff has no label of its own / ILYd4: the label may be cut off at the left edge (possibly 'rILYd4') / CP-02, KD: 15.3 ± 0.2, small print, 3 or 8 uncertain / CP-03, KD: 23.4 ± 0.7, small print / CP-06, KD: 11.3 ± 0.0, small print, 3 or 8 uncertain / CP-13, KD: 10.8 ± 0.7, small print, 8 or 6 uncertain / ILYd4, KD: 48.3 ± 1.1, small print, 8 and 3 uncertain
The mRNA-display cyclic peptide screen was performed against CD59-biotin by T.E.M: DNA templates for transcription were generated by PCR in a similar manner to that previously described.^2 RNA oligonucleotides were transcribed from the DNA templates using T7 RNA polymerase and purified by phenol/chloroform extraction followed by ethanol precipitation. Oligonucleotide concentrations were determined spectroscopically by absorbance at 260 nm. In the first selection round a 1:1:1 molar ratio of NNK10/NNK11/NNK12 was used. The procedure for selection rounds 2-6 is described below; round 1 was conducted at twice the scale.
RNA encoding for the peptide library ligated to a puromycin-modified oligonucleotide was […] (final [RNA] = 2.5 µM) using a customised PURE express kit (lacking release factor 1 and methionine, supplemented with […] initiator tRNA acylated with N-chloroacetyl-d-tyrosine prepared as previously described)^3 in a final volume of 5.6 µL for 1 hour at 37 °C.
This mixture was incubated at 42 °C for 1 hour before being diluted to 500 µL with PBS (10 mM Na-PO4 pH 7.4, 2.7 mM KCl, 137 mM NaCl) and 0.5 µL taken for subsequent use in qPCR. […]

Sequence | Counts (raw counts for peptide sequence), Seq I | Counts (raw counts for peptide sequence), Seq II | Percentage of the pool, averaged across the two sequencing samples | Percentage of the pool, Seq I | Percentage of the pool, Seq II | Percentage Seq I | Percentage Seq II | Percentage Average | Counts Seq I | Counts Seq II
CFVGRLTLTST | 65 | 3 | 0.011% | 0.015% | 0.007% | – | – | – | – | –
CFVLRRNFEGT | 53 | 5 | 0.012% | 0.012% | 0.012% | – | – | – | – | –
CFVNRLGSAESR | 63 | 9 | 0.018% | 0.014% | 0.021% | – | – | – | – | –
CFVNRLRSAESR | – | – | – | – | – | 0.141% | 0.144% | 0.143% | 618 | 62
CFVNRLSDSLSL | – | – | – | – | – | 0.048% | 0.070% | 0.059% | 212 | 30
CFVRRLNDLTTT | – | – | – | – | – | 0.121% | 0.137% | 0.129% | 528 | 59
CFVSRTQIGSV | 85 | 2 | 0.012% | 0.019% | 0.00464% | – | – | – | – | –
CFYQRTLGTTAS | – | – | – | – | – | 0.018% | 0.021% | 0.019% | 79 | 9
CFYTRIDAFST | – | – | – | – | – | 0.081% | 0.079% | 0.080% | 354 | 34
CHGGRTFIYAWS | – | – | – | – | – | 0.025% | 0.026% | 0.025% | 108 | 11
CIDVYGRMWA | – | – | – | – | – | 0.086% | 0.091% | 0.088% | 375 | 39
CIRGTPTTV | 56 | 3 | 0.010% | 0.013% | 0.007% | – | – | – | – | –
CIRGTPTTVWG | – | – | – | – | – | 0.387% | 0.362% | 0.374% | 1692 | 156
CKIDVYGRTWS | 81 | 5 | 0.015% | 0.019% | 0.012% | – | – | – | – | –
CLDKWGRLWS | – | – | – | – | – | 0.911% | 0.754% | 0.833% | 3987 | 325
CLDKWGRLWT | – | – | – | – | – | 0.042% | 0.042% | 0.042% | 182 | 18
CLRKTRDILSV | 65 | 6 | 0.014% | 0.015% | 0.014% | – | – | – | – | –

Sequence | Counts (raw counts for peptide sequence), Seq I | Counts (raw counts for peptide sequence), Seq II | Percentage of the pool, averaged across the two sequencing samples | Percentage of the pool, Seq I | Percentage of the pool, Seq II | Percentage Seq I | Percentage Seq II | Percentage Average | Counts Seq I | Counts Seq II
CLRLHREPGSL | – | – | – | – | – | 0.103% | 0.135% | 0.119% | 449 | 58
CLRRHVTASDV | – | – | – | – | – | 0.040% | 0.023% | 0.031% | 174 | 10
CLRRSFLDNAGV | 57 | 7 | 0.015% | 0.013% | 0.016% | – | – | – | – | –
CLRRSYEATSI | – | – | – | – | – | 0.020% | 0.021% | 0.021% | 88 | 9
CPQLILRGWQ | – | – | – | – | – | 0.030% | 0.044% | 0.037% | 133 | 19
CPRYVSRGFA | 72 | 5 | 0.014% | 0.016% | 0.012% | – | – | – | – | –
CRGNRFYQLSFH | – | – | – | – | – | 0.154% | 0.186% | 0.170% | 674 | 80
CSAGRLTIDAV | 37 | 6 | 0.011% | 0.00846% | 0.014% | – | – | – | – | –
CSRLTSRGWT | 62 | 5 | 0.013% | 0.014% | 0.012% | – | – | – | – | –
CSSLRARGWI | 75 | 3 | 0.012% | 0.017% | 0.007% | – | – | – | – | –
CYAAGSASWSRG | 65 | 6 | 0.014% | 0.015% | 0.014% | – | – | – | – | –
CYGDRTFIYAWS | 53 | 10 | 0.018% | 0.012% | 0.023% | – | – | – | – | –
CYGGQTFIYAWS | – | – | – | – | – | 0.026% | 0.030% | 0.028% | 114 | 13
CYGGRAFIYAWS | – | – | – | – | – | 0.042% | 0.044% | 0.043% | 185 | 19
CYGGRSFIYAWS | 47 | 6 | 0.012% | 0.011% | 0.014% | – | – | – | – | –
CYGGRTFIHAWS | – | – | – | – | – | 0.054% | 0.049% | 0.051% | 237 | 21
